Where “and” joins values, the source holds several entries; their conditions need not be identical. Identical values can stand only once. Like-named read-outs stand apart in the source and are kept apart here.
Key:
human MASP-2 [1] = biological target: T1, human MASP-2 (human, UniProt O00187 16-686); test: cell-based or functional assay
human MASP-2 [2] = biological target: T1, human MASP-2; test: cell-based or functional assay; remark: listed apart in the source
[3] = biological target: T2, human MASP-2A (catalytically inactive human MASP-2, Ser618 to Ala618) (human, UniProt O00187 16-686); test: titration ELISA on coated human MASP-2A ('Binding affinity'), IgG4 mutated format
T2 construct: the ELISA and Biacore methods say only 'MASP-2A', so a tag may have been present; also called huMASP2A; huMASP-2A
T2 sequence (O00187 16-686 S633A): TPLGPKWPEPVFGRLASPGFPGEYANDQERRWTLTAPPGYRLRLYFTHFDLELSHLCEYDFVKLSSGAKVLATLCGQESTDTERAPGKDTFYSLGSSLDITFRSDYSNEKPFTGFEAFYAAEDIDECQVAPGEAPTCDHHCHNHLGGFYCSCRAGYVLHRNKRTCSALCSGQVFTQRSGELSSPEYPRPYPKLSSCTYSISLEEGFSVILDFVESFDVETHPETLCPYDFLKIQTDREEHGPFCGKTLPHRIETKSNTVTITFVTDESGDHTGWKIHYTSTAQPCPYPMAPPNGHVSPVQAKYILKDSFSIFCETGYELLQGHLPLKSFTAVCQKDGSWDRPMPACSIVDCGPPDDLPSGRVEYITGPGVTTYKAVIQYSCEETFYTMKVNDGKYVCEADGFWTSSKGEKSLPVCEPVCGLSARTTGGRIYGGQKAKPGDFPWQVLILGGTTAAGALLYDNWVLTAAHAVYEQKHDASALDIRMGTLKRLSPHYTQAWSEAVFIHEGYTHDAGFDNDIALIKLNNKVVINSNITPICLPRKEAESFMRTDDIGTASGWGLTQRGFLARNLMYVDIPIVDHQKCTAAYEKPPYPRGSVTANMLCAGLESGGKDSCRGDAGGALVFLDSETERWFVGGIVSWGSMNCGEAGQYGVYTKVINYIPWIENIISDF
Method: (§1) The clones were then purified and re-tested in an ELISA and activity assay as follows. Human MASP-2A was coated at 3 μg/ml in PBS on a maxisorp plate, IgG (45 μg/ml) and Fab′2 (30 μg/ml) were diluted in PBS-Tween to a starting concentration of 300 nM, and further with 3-fold dilutions. IgGs were detected with HRP conjugated Goat α-Human IgG (Southern Biotech) and the F(ab′)2 were detected with HRP-conjugated Goat α-Human IgG H+L (Pierce 31412). The reaction was developed with TMB substrate and stopped with 2M H₂SO₄.

[4] = biological target: T2, human MASP-2A (catalytically inactive …); test: ELISA, purified scFv titrated on physically adsorbed human MASP-2A
human MASP-2 [5] = biological target: T1, human MASP-2; test: cell-based or functional assay; remark: listed apart in the source
[6] = biological target: T3, African Green monkey MASP-2 (in African Green monkey serum) (African Green monkey); test: cell-based or functional assay
[7] = biological target: T4, rat MASP-2 (in rat serum) (rat, UniProt Q9JJS8 20-685); test: cell-based or functional assay
T4 sequence (Q9JJS8 other isoform, or with tags, fused parts or gaps limits assumed): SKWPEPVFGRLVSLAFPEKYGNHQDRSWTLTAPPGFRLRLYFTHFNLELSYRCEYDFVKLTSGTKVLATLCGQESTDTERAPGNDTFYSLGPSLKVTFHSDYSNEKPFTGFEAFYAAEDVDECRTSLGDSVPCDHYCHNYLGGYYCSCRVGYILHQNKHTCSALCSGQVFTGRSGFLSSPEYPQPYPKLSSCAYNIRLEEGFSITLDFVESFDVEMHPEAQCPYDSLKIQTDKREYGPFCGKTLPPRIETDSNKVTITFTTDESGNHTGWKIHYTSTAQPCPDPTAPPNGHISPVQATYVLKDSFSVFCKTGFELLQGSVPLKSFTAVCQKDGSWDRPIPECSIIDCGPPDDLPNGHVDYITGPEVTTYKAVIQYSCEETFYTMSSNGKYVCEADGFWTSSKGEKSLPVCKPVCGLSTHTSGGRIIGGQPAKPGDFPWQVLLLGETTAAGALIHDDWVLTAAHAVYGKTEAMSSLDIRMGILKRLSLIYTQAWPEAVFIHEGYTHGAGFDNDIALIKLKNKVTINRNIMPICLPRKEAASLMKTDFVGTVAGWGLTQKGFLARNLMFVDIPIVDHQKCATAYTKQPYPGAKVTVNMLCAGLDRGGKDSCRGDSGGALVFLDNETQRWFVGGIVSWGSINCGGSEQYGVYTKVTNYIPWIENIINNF

human MASP-2 [8] = biological target: T1, human MASP-2; test: cell-based or functional assay; remark: listed apart in the source
[9] = biological target: T2, human MASP-2A (catalytically inactive …); test: ELISA on adsorbed human MASP-2A, purified scFv monomer
human MASP-2 [10] = biological target: T1, human MASP-2; test: cell-based or functional assay; remark: listed apart in the source
[11] = biological target: T2, human MASP-2A (catalytically inactive …); test: ELISA, purified scFv titrated on physically adsorbed human MASP-2A; remark: listed apart in the source
[12] = biological target: T3, African Green monkey MASP-2 (in African …); test: cell-based or functional assay; remark: listed apart in the source
[13] = biological target: T4, rat MASP-2 (in rat serum); test: cell-based or functional assay; remark: listed apart in the source
human MASP-2 [14] = biological target: T1, human MASP-2; test: cell-based or functional assay; remark: listed apart in the source
[15] = biological target: T2, human MASP-2A (catalytically inactive …); test: SPR (Biacore), MASP-2A amine coupled to CM5 chip, scFv monomer in solution
human MASP-2 [16] = biological target: T1, human MASP-2; test: cell-based or functional assay; remark: listed apart in the source
[17] = biological target: T3, African Green monkey MASP-2 (in African …); test: cell-based or functional assay; remark: listed apart in the source
human MASP-2 [18] = biological target: T1, human MASP-2; test: cell-based or functional assay; remark: listed apart in the source
[19] = biological target: T2, human MASP-2A (catalytically inactive …); test: SPR (Biacore), scFv captured by anti-cMyc antibody, MASP-2A in solution
human MASP-2 [20] = biological target: T1, human MASP-2; test: cell-based or functional assay; remark: listed apart in the source
human MASP-2 [21] = biological target: T1, human MASP-2; test: titration ELISA on MASP-2 (10 µg/ml)
[22] = biological target: T2, human MASP-2A (catalytically inactive …); test: SPR (Biacore), scFv captured by anti-cMyc antibody, MASP-2A in solution; MASP-2 in solution, scFv captured (not immobilized MASP-2)
[23] = biological target: T2, human MASP-2A (catalytically inactive …); test: titration ELISA on coated human MASP-2A ('Binding affinity'), F(ab′)2
Method: as §1

T1 sequence (O00187 16-686): as the sequence (O00187 16-686 S633A) above, with A618S counted along it

B1: 17D20 mother clone, IgG4 hinge mutant (S228P) format (antibody, V domains shown)
VH: QVTLKESGPVLVKPTETLTLTCTVSGFSLSRGKMGVSWIRQPPGKALEWLAHIFSSDEKSYRTSLKSRLTISKDTSKNQVVLTMTNMDPVDTATYYCARIRAGGIDYWGQGTLVTVSS
VL: QPVLTQPPSVSVSPGQTASITCSGDKLGDKFAYWYQQKPGHSPVLVIYQDNKRPSGIPGRFSGSNSGNTATLTISGTQAMDEADYYCQAWDSSTAVFGTGTKVTVLA
notes: IgG4 S228P; also called 17D20 IgG4 mutated format; 17D20 IgG4 S228P
C4b deposition in 90% human serum, IC50 relative to the C3b deposition assay (human MASP-2 [1]): ~3 fold | C3b deposition assay in 1% human serum, IC50 (human MASP-2 [2]): 11 nM and 27 nM | Kd [3]: 0.0284 nM

B2: scFv daughter clone 17N16m_d17N9 (scFv)
scFv: QVQLQQSGPGLVKPSQTLSLTCAISGDSVSSTSAAWNWIRQSPSRGLEWLGRTYYRSKWYNDYAVSVKSRITINPDTSKNQFSLQLNSVTPEDTAVYYCARDPFGVPFDIWGQGTMVTVSSKLSGSASAPKLEEGEFSEARVSYELIQPPSVSVAPGQTATITCAGDNLGKKRVHWYQQRPGQAPVLVIYDDSDRPSGIPDRFSASNSGNTATLTITRGEAGDEADYYCQVWDIATDHVVFGGGTKLTVLAAAGSEQKLISE
notes: also called 17N9 daughter clone
EC50 (read off the curve) [4]: ~0.8 nM | Complement assay IC50 (human MASP-2 [5]): 10.3 nM | IC50, C3c release, 0.2% African Green serum (first experiment) [6]: 63.8 nM | IC50, C3c release, 0.2% African Green serum (second experiment) [6]: 81.1 nM | IC50, C3c release, 0.375% rat serum (first experiment) [7]: 79.3 nM | IC50, C3c release, 0.375% rat serum (second experiment) [7]: 141 nM | IC50, C3c release, 1% human serum (first experiment) (human MASP-2 [8]): 39.9 nM | IC50, C3c release, 1% human serum (second experiment) (human MASP-2 [8]): 57.7 nM | Kd [9]: 48.6 nM | 1% human serum C3 assay IC50 (human MASP-2 [10]): 48 nM | 90% human serum C3 assay IC50 (human MASP-2 [10]): 15 nM | 90% human serum C4 assay IC50 (human MASP-2 [10]): 230 nM

B3: scFv mother clone 17D20 (scFv)
scFv: QVTLKESGPVLVKPTETLTLTCTVSGFSLSRGKMGVSWIRQPPGKALEWLAHIFSSDEKSYRTSLKSRLTISKDTSKNQVVLTMTNMDPVDTATYYCARIRAGGIDYWGQGTLVTVSSKLSGSASAPKLEEGEFSEARVQPVLTQPPSVSVSPGQTASITCSGDKLGDKFAYWYQQKPGHSPVLVIYQDNKRPSGIPGRFSGSNSGNTATLTISGTQAMDEADYYCQAWDSSTAVFGTGTKVTVLAAAGSEQKLISEEDLNSHHHHHH
notes: also called 17D20 (17P10); 17D20mc
EC50 (read off the curve) [11]: ~2 nM | Functional IC50, C3b deposition, non-human primate serum Exp #1 [12]: 94.8 nM | Functional IC50, C3b deposition, non-human primate serum Exp #2 [12]: 71.8 nM | Functional IC50, C3b deposition, rat serum Exp #1 [13]: 434 nM | Functional IC50, C3b deposition, human serum Exp #1 (human MASP-2 [14]): 157 nM | Functional IC50, C3b deposition, human serum Exp #2 (human MASP-2 [14]): 39.9 nM | Functional IC50, C3b deposition, human serum Exp #3 (human MASP-2 [14]): 24.1 nM | Functional IC50, C3b deposition, human serum Exp #4 (human MASP-2 [14]): 23.7 nM | Kd [15]: 11.3 nM | Inhibitory activity in Human Serum IC50 (C3b deposition, 0.5% human serum) (human MASP-2 [16]): 157 nM | C3 Assay IC50, non-human primate serum Exp #1 [17]: 94 nM | C3 Assay IC50, non-human primate serum Exp #2 [17]: 74 nM | C3 Assay IC50, non-human primate serum mean [17]: 84 nM | C3 Assay IC50 in dilute serum (1%), human serum Exp #1 (human MASP-2 [18]): 24 nM | C3 Assay IC50 in dilute serum (1%), human serum Exp #2 (human MASP-2 [18]): 24 nM | C3 Assay IC50 in dilute serum (1%), human serum Exp #3 (human MASP-2 [18]): 40 nM | C3 Assay IC50 in dilute serum (1%), human serum mean (human MASP-2 [18]): 29 nM | Kd [19]: 0.76 nM | C3 convertase assay using 1% human serum, IC50 (first experiment) (human MASP-2 [20]): 98.3 nM | C3 convertase assay using 1% human serum, IC50 (second experiment) (human MASP-2 [20]): 151 nM | Kd (human MASP-2 [21]): 1.9 nM | 1% human serum C3 assay IC50 (human MASP-2 [10]): 38 nM

B4: scFv daughter clone 17D20m_d21N11 (scFv)
scFv: QVTLKESGPVLVKPTETLTLTCTVSGFSLSRGKMGVSWIRQPPGKALEWLAHIFSSDEKSYRTSLKSRLTISKDTSKNQVVLTMTNMDPVDTATYYCARIRAGGIDYWGQGTLVTVSSKLSGSASAPKLEEGEFSEARVQPVLTQPPSLSVSPGQTASITCSGEKLGDKYAYWYQQKPGQSPVLVMYQDKQRPSGIPERFSGSNSGNTATLTISGTQAMDEADYYCQAWDSSTAVFGGGTKLTVL
EC50 (read off the curve) [11]: ~3 nM | Kd (human MASP-2 [21]): 10 nM | 1% human serum C3 assay IC50 (human MASP-2 [10]): 360 nM | 90% human serum C4 assay IC50 (human MASP-2 [10]): ~500 nM

B5: scFv mother clone 4D9 (scFv)
scFv: QITLKESGPVLVKPTETLTLTCTVSGFSLSNARMGVSWIRQPPGKALEWLAHIFSNDEKSYSTSLKSRLTISKDTSKSQVVLTMTNMDPVDTATYYCARMRYSSSLYGMDVWGQGTRVTVSSKLSGSASAPKLEEGEFSEARVSYELIQPPSVSVSPGQTASITCSGDKLGDKYVSWYQQKPGRSPVLVIYRDTKRPSGIPERFSGSNSGNTATLTISGTQAMDEADYYCQAWDSSTVVFGGGTKLTVLAAAGSEQKLISEEDLNSHHHHHH
notes: also called 4D9 (18L16)
Kd [22]: 0.02 nM | Functional IC50, C3b deposition, non-human primate serum Exp #1 [12]: 115 nM | Functional IC50, C3b deposition, non-human primate serum Exp #2 [12]: 203 nM | Functional IC50, C3b deposition, human serum Exp #1 (human MASP-2 [14]): 22 nM | Functional IC50, C3b deposition, human serum Exp #2 (human MASP-2 [14]): 46.3 nM | Functional IC50, C3b deposition, human serum Exp #3 (human MASP-2 [14]): 62.2 nM | Functional IC50, C3b deposition, human serum Exp #4 (human MASP-2 [14]): 38.4 nM | Kd [15]: 8.4 nM | Inhibitory activity in Human Serum IC50 (C3b deposition, 0.5% human serum) (human MASP-2 [16]): 22 nM

B6: scFv mother clone 17L20 (scFv)
scFv: EVQLQQSGPGLVKPSQTLSLTCAISGDSVSSKRAAWDWIRQSPSRGLEWLGRTYYRSKWFNDYAISVKSRITINADTSRNQFSLQLNSVTPEDTAVYYCVKSNSGTGAFDSWGQGTLVTVSSKLSGSASAPKLEEGEFSEARVQPGLTQPPSVSVSPGQTARITCSRDKLGDKYVSWYQQKPGQSPVVVMYKDNKRPSGIPERFSGSNSGNTATLTISGTQAMDEADYYCQAWDSSTAGVFGGGTKLTVLAAAGSEQKLISEEDLNSHHHHHH
Functional IC50, C3b deposition, non-human primate serum Exp #2 [12]: 71.7 nM | Functional IC50, C3b deposition, rat serum Exp #1 [13]: 41 nM | Functional IC50, C3b deposition, human serum Exp #2 (human MASP-2 [14]): 104 nM | Functional IC50, C3b deposition, human serum Exp #3 (human MASP-2 [14]): 308 nM | Functional IC50, C3b deposition, human serum Exp #4 (human MASP-2 [14]): 199 nM

B7: 17D20 mother clone, F(ab′)2 format (Fab, V domains shown)
VH: QVTLKESGPVLVKPTETLTLTCTVSGFSLSRGKMGVSWIRQPPGKALEWLAHIFSSDEKSYRTSLKSRLTISKDTSKNQVVLTMTNMDPVDTATYYCARIRAGGIDYWGQGTLVTVSS
VL: QPVLTQPPSVSVSPGQTASITCSGDKLGDKFAYWYQQKPGHSPVLVIYQDNKRPSGIPGRFSGSNSGNTATLTISGTQAMDEADYYCQAWDSSTAVFGTGTKVTVLA
notes: also called 17D20 F(ab′)2
Kd [23]: 0.181 nM | C3 convertase assay using 1% human serum, IC50 (first experiment) (human MASP-2 [20]): 7.3 nM | C3 convertase assay using 1% human serum, IC50 (second experiment) (human MASP-2 [20]): 13.5 nM

B8: 17N16 mother clone, IgG4 hinge mutant (S228P) format (antibody, V domains shown)
VH: QVQLQQSGPGLVKPSQTLSLTCAISGDSVSSTSAAWNWIRQSPSRGLEWLGRTYYRSKWYNDYAVSVKSRITINPDTSKNQFSLQLNSVTPEDTAVYYCARDPFGVPFDIWGQGTMVTVSS
VL: SYVLTQPPSVSVAPGQTARITCGGNNIGSKNVHWYQQKPGQAPVLVVYDDSDRPSGIPERFSGSNSGNTATLTVSRVEAGDEADYYCQVWDTTTDHVVFGGGTKLTVL
notes: IgG4 S228P; also called 17N16 IgG4 mutated format
Kd [3]: 0.0206 nM

B9: 17N16 mother clone, F(ab′)2 format (Fab, V domains shown)
VH: QVQLQQSGPGLVKPSQTLSLTCAISGDSVSSTSAAWNWIRQSPSRGLEWLGRTYYRSKWYNDYAVSVKSRITINPDTSKNQFSLQLNSVTPEDTAVYYCARDPFGVPFDIWGQGTMVTVSS
VL: SYVLTQPPSVSVAPGQTARITCGGNNIGSKNVHWYQQKPGQAPVLVVYDDSDRPSGIPERFSGSNSGNTATLTVSRVEAGDEADYYCQVWDTTTDHVVFGGGTKLTVL
notes: also called 17N16 F(ab′)2
Kd [23]: 0.0959 nM

Reference: patent US20170088632A1 (OMEROS, published 2017)
